This note sets out measurements from US20150037340A1 (PEIRRE FABRE MEDICAMENT, published 2015).

Broadly, the Kd is the free concentration of one partner at which half of the binding sites on the other are occupied at equilibrium, for simple one-to-one binding. High values mean weaker binding, low ones tighter binding. The koff is the first-order rate constant of dissociation. A high value points to a short-lived complex. As a reminder, the kon is a measure of how fast the partners come together. Read a low kon as slower complex formation.

In assay [1] the target is T1, human extracellular domain (ECD) of Axl, His-tagged (pCEP[AXL]His6, produced in HEK293E) (human, UniProt P30530 26-451).
T1 construct: also called human Axl ECD; rhAxl ECD; not shown: His6 tag
T1 sequence: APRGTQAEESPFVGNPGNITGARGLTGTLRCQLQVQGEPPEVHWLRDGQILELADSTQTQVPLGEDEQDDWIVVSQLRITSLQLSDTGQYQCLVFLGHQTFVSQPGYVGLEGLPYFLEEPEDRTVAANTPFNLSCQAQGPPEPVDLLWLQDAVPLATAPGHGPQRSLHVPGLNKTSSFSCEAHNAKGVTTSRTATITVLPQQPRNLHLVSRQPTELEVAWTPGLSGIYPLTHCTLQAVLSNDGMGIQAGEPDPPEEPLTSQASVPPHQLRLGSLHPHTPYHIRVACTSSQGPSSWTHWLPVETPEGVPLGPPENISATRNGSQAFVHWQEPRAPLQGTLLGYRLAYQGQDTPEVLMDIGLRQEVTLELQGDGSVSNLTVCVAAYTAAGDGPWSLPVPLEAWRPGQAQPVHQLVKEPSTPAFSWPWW
In words: SPR (Biacore X), antibody captured on CM5 chip, Axl ECD as analyte, 1:1 Langmuir model. The procedure:
Briefly, the experiments were realized using a sensor chip CM5 as the biosensor. Rabbit IgGs were immobilized on the flow cells 1 and 2 (FC 1 and FC2) of a CM5 sensor chip at a level of 9300-10000 response units (RU) using amine coupling chemistry to capture antibodies.
Binding is evaluated using multiple cycles. Each cycle of measure is performed using a flow rate of 30 μl/imin in a HBS-EP buffer. Then the Axl antibody to test is captured on the chip for 1 min on FC2 only to reach a mean capture value of 311.8 RU (SD=5.1 RU) for the 1613F12. The analyte (Axl ECD antigen) is injected starting at 200 nM and using two-fold serial dilutions to measure rough ka and kd in real time.
At the end of each cycle, the surfaces are regenerated by injecting a 10 mM glycine hydrochloride pH1.5 solution to eliminate the antibody-antigen complexes and the capture antibody as well. The considered signal corresponds to the difference of the signals observed between FC1 and FC2 (FC2-FC1). Association rates (ka) and dissociation rates (kd) were calculated using a one-to-one Langmuir binding model. The equilibrium dissociation constant (KD) is determined as the […]. The experimental values were analyzed in the Biaevaluation software version 3.0. A χ2 analysis will be performed to assess the accuracy of the data.

Assay [2] deals with T2, recombinant human Axl-Fc (R and D Systems, cat No 154-AL / 154AL/CF) (human, UniProt P30530 26-451).
T2 construct: Bought protein; also called rhAxl-Fc; rh Axl-Fc protein; not shown: human IgG Fc portion (detected with anti-human IgG Fc)
T2 sequence: T1 sequence
In words: competition ELISA: rhAxl-Fc pre-incubated with the antibody, loaded on coated rhGas6 (blocked ligand), bound rhAxl-Fc detected with anti-human IgG-HRP. The procedure: To further characterize the 1613F12, Gas6 competition assays were performed. In this assay, the free rhAxl-Fc protein and the 1613F12 are incubated to form antigen-antibody complex and then the complexes are loaded on Gas6-coated surface in the assay plate. The unbound antibody-antigen complexes are washed out before adding enzyme-linked secondary antibody against the human Fc portion of the rhAxl-Fc protein. The substrate is then added and the antigen concentration can be determined by the signal strength elicited by the enzyme-substrate reaction.
Briefly reaction mixture comprising the rhAxl-Fc protein in the presence or not of the anti-Axl Mabs to be tested, are prepared on a separate saturated (0.5% gelatin in PBS 1×) plate. Serial 1: 2 dilutions (starting from 80 μg/ml on 12 columns) of murine anti-Axl antibodies are performed. […] After homogenisation, the competition samples are loaded on Gas6-coated plates with a 6 μg/m rhGas6 solution in PBS (R and D Systems cat No 885-GS-CS/CF). After incubation and several washes, bound rhAxl-Fc proteins are detected using a goat anti-Human IgG-HRP (Jackson, ref. 109-035-098). Once bound, the TMB substrate is added to the plates. The reaction is stopped by addition of 1M H₂SO₄ acid solution and the obtained optical densities read at 450 nm using a microplate reader instrument.

B1: 1613F12 antibody (murine form) (antibody, V domains shown)
VH: EVHLQQSGAELVKPGASVKLSCTASGFNIRDTYIHWVKQRPEQGLEWIGRLDPANGHTKYGPNFQGRATMTSDTSSNTAYLQLSSLTSEDTAVYYCARGAYYYGSSGLFYFDYWGQGTTLSVSS
VL: DVQITQSPSYLATSPGETITINCRASKSISKYLAWYQEKPGKTNKLLIYSGSTLQSGVPSRFSGSGSGTDFTLTISSLEPEDFAMYFCQQHHEYPLTFGAGTELELK
notes: Whole murine monoclonal antibody purified from a hybridoma; a murine IgG1 (9G4) serves as its isotype control; also called m1613F12; monoclonal antibody 1613F12 derived from the hybridoma I-4505
Consider B1, for which, in assay [1], the Kd was 2.29 nM, the koff was 0.000242 s⁻¹ and the on-rate (kon) is 106000 M⁻¹ s⁻¹. In addition, the “IC50 (read off the curve)” value in assay [2] is ~20 nM.
